Results taken from patent US20240182536A1 (MURAL ONCOLOGY, published 2024).

Legend:
[1] = molecular target: T1, IL-18 receptors on HEK-Blue IL-18 reporter cells (UniProt Q13478 19-541; O95256 20-599, limits assumed); assay: cell-based or functional assay
T1 sequence (looked up) 1: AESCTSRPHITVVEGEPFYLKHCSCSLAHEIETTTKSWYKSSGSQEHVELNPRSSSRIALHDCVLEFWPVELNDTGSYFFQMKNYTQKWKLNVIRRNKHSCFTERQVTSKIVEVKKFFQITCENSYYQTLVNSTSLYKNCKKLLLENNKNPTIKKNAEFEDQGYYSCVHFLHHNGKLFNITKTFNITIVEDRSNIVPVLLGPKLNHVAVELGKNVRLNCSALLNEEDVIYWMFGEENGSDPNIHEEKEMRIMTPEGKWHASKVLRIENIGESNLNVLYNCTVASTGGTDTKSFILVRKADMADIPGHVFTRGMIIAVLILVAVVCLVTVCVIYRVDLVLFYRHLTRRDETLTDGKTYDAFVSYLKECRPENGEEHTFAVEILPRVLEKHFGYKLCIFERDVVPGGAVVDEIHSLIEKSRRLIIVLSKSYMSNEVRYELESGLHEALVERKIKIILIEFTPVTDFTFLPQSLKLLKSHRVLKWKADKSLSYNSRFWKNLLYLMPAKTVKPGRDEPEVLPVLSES
T1 sequence (looked up) 2: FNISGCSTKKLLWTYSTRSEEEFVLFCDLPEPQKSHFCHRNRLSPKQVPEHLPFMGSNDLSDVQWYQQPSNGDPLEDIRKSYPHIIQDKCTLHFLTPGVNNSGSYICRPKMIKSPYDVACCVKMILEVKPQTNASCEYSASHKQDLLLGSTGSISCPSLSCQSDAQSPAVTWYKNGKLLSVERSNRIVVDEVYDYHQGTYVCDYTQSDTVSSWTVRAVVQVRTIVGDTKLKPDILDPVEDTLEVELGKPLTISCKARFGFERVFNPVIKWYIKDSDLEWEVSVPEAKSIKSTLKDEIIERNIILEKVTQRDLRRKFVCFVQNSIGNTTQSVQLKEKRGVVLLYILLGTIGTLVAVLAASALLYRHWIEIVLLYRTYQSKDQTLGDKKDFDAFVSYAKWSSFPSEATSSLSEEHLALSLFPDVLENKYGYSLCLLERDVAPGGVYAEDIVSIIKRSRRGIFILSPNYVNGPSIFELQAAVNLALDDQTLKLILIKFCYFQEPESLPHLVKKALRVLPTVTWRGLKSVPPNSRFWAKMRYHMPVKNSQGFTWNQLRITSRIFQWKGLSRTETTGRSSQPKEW

[2] = molecular target: T2, human IL-18 binding protein (human, UniProt O95998 31-194); assay: cell-based or functional assay
T2 sequence (looked up): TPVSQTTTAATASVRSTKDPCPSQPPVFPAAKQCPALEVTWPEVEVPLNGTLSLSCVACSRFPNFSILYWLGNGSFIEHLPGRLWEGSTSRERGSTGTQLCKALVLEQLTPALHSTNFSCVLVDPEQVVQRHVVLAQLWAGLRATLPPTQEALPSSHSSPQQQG

Binder | HEK-Blue activity, No BP, DF-10000 [1] | HEK-Blue activity, No BP, DF-100,000 [1] | HEK-Blue activity, No BP, DF-1,000,000 [1] | HEK-Blue activity, +100 nM BP, DF-10000 [2] | HEK-Blue activity, +100 nM BP, DF-100,000 [2] | HEK-Blue activity, +100 nM BP, DF-1,000,000 [2] | Ratio (-BP/+BP), DF-10000 [2] | Ratio (-BP/+BP), DF-100,000 [2] | Ratio (-BP/+BP), DF-1,000,000 [2]
yeast display IL-18 variant K53S, S55K (ligand) YFGKLESKLSVIRNLNDQVLFIDQGNRPLFEDMTDSDMRDNAPRTIFIISMYSDKQPRGMAVTISVKSEKISTLSSENKIISFKEMNPPDNIKDTKSDIIFFQRSVPGHDNKMQFESSSYEGYFLASEKERDLFKLILKKEDELGDRSIMFTVQNED | 2 | 1.35 | 0.5 | 2.03 | 1.41 | 0.53 | 0.98 | 0.96 | 0.95
yeast display IL-18 variant L5W, I22M, K53N, S55Y, Q56H (ligand) YFGKWESKLSVIRNLNDQVLFMDQGNRPLFEDMTDSDMRDNAPRTIFIISMYNDYHPRGMAVTISVKSEKISTLSSENKIISFKEMNPPDNIKDTKSDIIFFQRSVPGHDNKMQFESSSYEGYFLASEKERDLFKLILKKEDELGDRSIMFTVQNED | 0.75 | 0.21 | 0.13 | 0.72 | 0.23 | 0.21 | 1.05 | 0.91 | 0.61
yeast display IL-18 variant E6D, S36F, K53T, S55M, R58K (ligand) YFGKLDSKLSVIRNLNDQVLFIDQGNRPLFEDMTDFDMRDNAPRTIFIISMYTDMQPKGMAVTISVKSEKISTLSSENKIISFKEMNPPDNIKDTKSDIIFFQRSVPGHDNKMQFESSSYEGYFLASEKERDLFKLILKKEDELGDRSIMFTVQNED | 0.48 | 0.14 | 0.09 | 0.5 | 0.14 | 0.09 | 0.96 | 1.02 | 0.96
yeast display IL-18 variant S36E, D37E, D40K, N41T, K53T, S55Q, R104H (ligand) YFGKLESKLSVIRNLNDQVLFIDQGNRPLFEDMTDEEMRKTAPRTIFIISMYTDQQPRGMAVTISVKSEKISTLSSENKIISFKEMNPPDNIKDTKSDIIFFQHSVPGHDNKMQFESSSYEGYFLASEKERDLFKLILKKEDELGDRSIMFTVQNED | 0.81 | 0.22 | 0.17 | 0.81 | 0.21 | 0.14 | 1 | 1.01 | 1.22
yeast display IL-18 variant K53T, S55F (ligand) YFGKLESKLSVIRNLNDQVLFIDQGNRPLFEDMTDSDMRDNAPRTIFIISMYTDFQPRGMAVTISVKSEKISTLSSENKIISFKEMNPPDNIKDTKSDIIFFQRSVPGHDNKMQFESSSYEGYFLASEKERDLFKLILKKEDELGDRSIMFTVQNED | 0.67 | 0.2 | 0.16 | 0.6 | 0.18 | 0.25 | 1.12 | 1.09 | 0.64
yeast display IL-18 variant K53T, S55A (ligand) YFGKLESKLSVIRNLNDQVLFIDQGNRPLFEDMTDSDMRDNAPRTIFIISMYTDAQPRGMAVTISVKSEKISTLSSENKIISFKEMNPPDNIKDTKSDIIFFQRSVPGHDNKMQFESSSYEGYFLASEKERDLFKLILKKEDELGDRSIMFTVQNED | 1.8 | 0.96 | 0.29 | 1.85 | 0.95 | 0.32 | 0.97 | 1 | 0.89
yeast display IL-18 variant K53T, S55P (ligand) YFGKLESKLSVIRNLNDQVLFIDQGNRPLFEDMTDSDMRDNAPRTIFIISMYTDPQPRGMAVTISVKSEKISTLSSENKIISFKEMNPPDNIKDTKSDIIFFQRSVPGHDNKMQFESSSYEGYFLASEKERDLFKLILKKEDELGDRSIMFTVQNED | 1.42 | 0.59 | 0.16 | 1.53 | 0.65 | 0.21 | 0.93 | 0.91 | 0.79
yeast display IL-18 variant K53G, S55V (ligand) YFGKLESKLSVIRNLNDQVLFIDQGNRPLFEDMTDSDMRDNAPRTIFIISMYGDVQPRGMAVTISVKSEKISTLSSENKIISFKEMNPPDNIKDTKSDIIFFQRSVPGHDNKMQFESSSYEGYFLASEKERDLFKLILKKEDELGDRSIMFTVQNED | 0.56 | 0.15 | 0.1 | 0.57 | 0.15 | 0.1 | 0.98 | 1.01 | 1.03
yeast display IL-18 variant K53G, S55I (ligand) YFGKLESKLSVIRNLNDQVLFIDQGNRPLFEDMTDSDMRDNAPRTIFIISMYGDIQPRGMAVTISVKSEKISTLSSENKIISFKEMNPPDNIKDTKSDIIFFQRSVPGHDNKMQFESSSYEGYFLASEKERDLFKLILKKEDELGDRSIMFTVQNED | 0.59 | 0.14 | 0.09 | 0.76 | 0.19 | 0.13 | 0.77 | 0.73 | 0.7
yeast display IL-18 variant K53T, S55M, R58K (ligand) YFGKLESKLSVIRNLNDQVLFIDQGNRPLFEDMTDSDMRDNAPRTIFIISMYTDMQPKGMAVTISVKSEKISTLSSENKIISFKEMNPPDNIKDTKSDIIFFQRSVPGHDNKMQFESSSYEGYFLASEKERDLFKLILKKEDELGDRSIMFTVQNED | 0.78 | 0.2 | 0.12 | 0.72 | 0.21 | 0.17 | 1.08 | 0.92 | 0.72
yeast display IL-18 variant K53S, S55G (ligand) YFGKLESKLSVIRNLNDQVLFIDQGNRPLFEDMTDSDMRDNAPRTIFIISMYSDGQPRGMAVTISVKSEKISTLSSENKIISFKEMNPPDNIKDTKSDIIFFQRSVPGHDNKMQFESSSYEGYFLASEKERDLFKLILKKEDELGDRSIMFTVQNED | 1.71 | 0.91 | 0.3 | 1.83 | 0.97 | 0.27 | 0.93 | 0.95 | 1.1
yeast display IL-18 variant K53S, S55Y (ligand) YFGKLESKLSVIRNLNDQVLFIDQGNRPLFEDMTDSDMRDNAPRTIFIISMYSDYQPRGMAVTISVKSEKISTLSSENKIISFKEMNPPDNIKDTKSDIIFFQRSVPGHDNKMQFESSSYEGYFLASEKERDLFKLILKKEDELGDRSIMFTVQNED | 1.41 | 0.54 | 0.19 | 1.52 | 0.55 | 0.21 | 0.93 | 0.97 | 0.9
